These results are taken from patent US20240018189A1 (PROTAGONIST THERAPEUTICS, published 2024).

Starred links: 1 amine or outer side, 2 acyl side, 3 side chain; linkers in the order of their positions; H or OH if unused. Positions of bridges follow the written chain, without caps; N, C: chain ends. Non-standard residues stand in square brackets, D forms with d. Groups on a side chain read outwards from the residue. *: point of attachment. PEG12 = NCCOCCOCCOCCOCCOCCOCCOCCOCCOCCOCCOCCOCCC(=O)O; Phe(4-COOH) = N[C@@H](Cc1ccc(C(=O)O)cc1)C(=O)O; Phe(4-tBu) = CC(C)(C)c1ccc(C[C@H](N)C(=O)O)cc1; Pro(4Amino) = proline with a 4-amino group; Phe(4-CN) = N#Cc1ccc(C[C@H](N)C(=O)O)cc1; Dip = N[C@H](C(=O)O)C(c1ccccc1)c1ccccc1; γGlu = O=C(O)[C@H](CCC(=O)[*:2])N[*:1]; 2Nal = N[C@@H](Cc1ccc2ccccc2c1)C(=O)O; AEF = NCCOc1ccc(C[C@H](N)C(=O)O)cc1; Arg(Dimethyl) = dimethyl-arginine; Palmitoyl = CCCCCCCCCCCCCCCC(=O)*; αMeF = C[C@](N)(Cc1ccccc1)C(=O)O; β3hF = N[C@H](CC(=O)O)Cc1ccccc1; Cit = NC(=O)NCCC[C@H](N)C(=O)O; Spiral_Pip = not defined here; Isovaleryl = CC(C)CC(=O)*; αMeC = C[C@](N)(CS)C(=O)O; Npc = nipecotic acid; Ahx = NCCCCCC(=O)O

The target of the test is T1, human ferroportin (SLC40A1) fused in frame with GFP (human) (UniProt Q9NP59).
T1 sequence (looked up): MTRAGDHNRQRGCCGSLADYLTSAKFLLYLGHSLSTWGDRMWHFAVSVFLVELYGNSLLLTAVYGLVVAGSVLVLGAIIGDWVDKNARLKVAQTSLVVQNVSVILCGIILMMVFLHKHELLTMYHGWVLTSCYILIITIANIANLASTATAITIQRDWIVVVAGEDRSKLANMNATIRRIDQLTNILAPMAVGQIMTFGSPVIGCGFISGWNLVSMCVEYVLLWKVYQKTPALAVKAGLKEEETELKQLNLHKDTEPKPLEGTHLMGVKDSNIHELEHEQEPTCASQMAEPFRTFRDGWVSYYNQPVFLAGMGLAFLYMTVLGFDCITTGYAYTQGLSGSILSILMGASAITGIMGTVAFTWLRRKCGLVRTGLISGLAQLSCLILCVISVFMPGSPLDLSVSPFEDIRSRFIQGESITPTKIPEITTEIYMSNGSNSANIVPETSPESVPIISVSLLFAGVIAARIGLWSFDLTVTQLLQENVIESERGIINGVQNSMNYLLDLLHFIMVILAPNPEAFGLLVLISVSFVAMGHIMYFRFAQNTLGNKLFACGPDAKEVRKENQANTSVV
In words: cell-based or functional assay.

Take Isovaleryl-DTH[Dip][Npc]CIK([γGlu-Palmitoyl])[β3hF]C[dK]-NH2 (disulfide 6-10 (inferred)) [Compd. ID 19]: the FPN EC50 came to 4.56 nM.

B1: Compd. ID 21 (peptide)
peptide: DTHXPCIKXKXC
modifications: not fully specified; N-term isovaleric acid; 4 Dpa; 8 (D)Lys; 9 bhPhe; 10 Lys(Ahx-Palm); 11 Spiral_Pip; C-term NH2
On to B1, for which the FPN EC50 amounted to 37.5 nM.

As for Isovaleryl-DTHF[Npc]CI[dK]FK([PEG12-Palmitoyl])[dK]C-NH2 (disulfide 6-12 (inferred)) [Seq. No. 351], the IC50: FPN internalisation was determined as 13.2 nM.

On to DTHXPCIKXKKC (N-term isovaleric acid; 4 Dpa; 8 (D)Lys; 9 bhPhe; 10 Lys(Ahx-Palm); C-term NH2) [Compd. ID 17], for which the FPN EC50 turned out to be 8.29 nM.

Molecule Isovaleryl-DTH[Dip][Npc]CI[dK][αMeF]K([PEG12-Palmitoyl])KC-NH2 (disulfide 6-12 (inferred)) [Seq. No. 348] came in with an IC50: FPN internalisation of 2.1 nM.

B2: Compd. ID 37 (peptide)
peptide: DTHXPCIKXKKC
modifications: N-term isovaleric acid; 4 Dpa; 8 (D)Lys; 9 bhPhe; 10 Lys(2Peg11′_Ahx_Palm); 11 (D)Lys; C-term NH2
B2: the FPN EC50 is 19.6 nM.

Consider Isovaleryl-DTH[Dip]PCI[β3hF]K([Ahx-Palmitoyl])[dK]C-NH2 (disulfide 6-11 (inferred)) [Compd. ID 18], for which the FPN EC50 was determined as 10.8 nM.

Turning to Isovaleryl-DTH[Dip][Npc]CI[dK][AEF]K([PEG12-Palmitoyl])KC-NH2 (disulfide 6-12 (inferred)) [Seq. No. 358], the IC50: FPN internalisation was > 3000 nM.

On to Isovaleryl-DTH[Dip][Npc]CI[dK]FK([PEG12-Palmitoyl])KC-NH2 (disulfide 6-12 (inferred)) [Seq. No. 360], for which the IC50: FPN internalisation stood at 9.64 nM.

Isovaleryl-DTHFP[αMeC]I[dK]FK([PEG12-Palmitoyl])KC-NH2 (disulfide 6-12 (inferred)) [Seq. No. 353] displayed an IC50: FPN internalisation of 21.5 nM.

As for Isovaleryl-DTH[Dip][Npc]CI[dK][Phe(4-CN)]K([PEG12-Palmitoyl])KC-NH2 (disulfide 6-12 (inferred)) [Seq. No. 347], the IC50: FPN internalisation was found to be 23 nM.

B3: Compd. ID 22 (peptide)
peptide: DTHXPCIKXKRC
modifications: N-term isovaleric acid; 4 Dpa; 8 (D)Lys; 9 bhPhe; 10 Lys(Ahx-Palm); 11 Arg(Nitro); C-term NH2
B3 gave an FPN EC50 of 30.1 nM.

B4: Compd. ID 11 (peptide)
peptide: DTHXPCIKXKC
modifications: not fully specified; N-term isovaleric acid; 4 Dpa; 8 Lys[1Peg2-1Peg2-Ahx-C18_Diacid]; 9 bhPhe; 10 (D)Lys; C-term NH2
Molecule B4 had an FPN EC50 of 12.7 nM.

Regarding Isovaleryl-DTH[Dip][Npc]CI[dK][Phe(4-COOH)]K([PEG12-Palmitoyl])KC-NH2 (disulfide 6-12 (inferred)) [Seq. No. 356], the IC50: FPN internalisation is 0.1 nM.

Isovaleryl-DTHFP[αMeC]I[dK]FK([PEG12-Palmitoyl])K[αMeC]-NH2 (disulfide 6-12 (inferred)) [Seq. No. 354] showed an IC50: FPN internalisation of 10 nM.

Isovaleryl-DTH[Dip]PCI[Spiral_Pip][β3hF]K([Ahx-Palmitoyl])[dK]C-NH2 (disulfide 6-12 (inferred); reading uncertain) [Compd. ID 27] displayed an FPN EC50 of 26.3 nM.

B5: Compd. ID 20 (peptide)
peptide: DTHXPCIKXKKC
modifications: N-term isovaleric acid; 4 Dpa; 8 (D)Lys; 9 bhPhe; 10 Lys(Ahx-Palm); 11 (D)Lys; C-term NH2
With B5, the FPN EC50 came to 6.66 nM.

B6: Ref. Cmpd. 1 (peptide)
peptide: Isovaleryl-DTHFPCIKFKPRSKGCK-NH2
modifications: disulfide 6-16 (inferred); not fully specified (residue 10); also: K10: Lys[PEG11-Palm] (Lys[2PEG11-Palm]
Molecule B6 yielded an FPN EC50 of 30 nM and a Potency EC50 of 30 nM.

Isovaleryl-DTH[Dip]PCI[Arg(Dimethyl)][β3hF]K([Ahx-Palmitoyl])[dK]C-NH2 (disulfide 6-12 (inferred)) [Compd. ID 29] displayed an FPN EC50 of 10.6 nM.

B7: Compd. ID 24 (peptide)
peptide: DTHXPCIKXKXC
modifications: N-term isovaleric acid; 4 Dpa; 8 (D)Lys; 9 bhPhe; 10 Lys(Ahx-Palm); 11 Cit; C-term NH2
With B7, the FPN EC50 was found to be 45.8 nM.

As for Isovaleryl-DTH[Dip][Npc]CI[dK][β3hF]K([Ahx-Palmitoyl])C[dK]-NH2 (disulfide 6-11 (inferred)) [Compd. ID 12], the FPN EC50 was determined as 11.5 nM.

B8: Seq. No. 350 (peptide)
peptide: DTHXXCIKFKKC
modifications: N-term isovaleric acid; 4 Dpa; 5 bhPro; 8 (D)Lys; 10 Lys(PEG12_Palm); 11 (D)Lys; C-term NH2
The molecule B8 had an IC50: FPN internalisation of 0.8 nM.

B9: Compd. ID 10 (peptide)
peptide: DTHXPCIKXKKC
modifications: not fully specified; N-term isovaleric acid; 4 Dpa; 8 Lys[1Peg2-1Peg2-Ahx-C18_Diacid]; 9 bhPhe; 11 (D)Lys; C-term NH2
B9 registered an FPN EC50 of 3.05 nM.

B10: Compd. ID 33 (peptide)
peptide: DTHXPCIKXKPRSKC
modifications: N-term isovaleric acid; 4 Dpa; 8 (D)Lys; 9 bhPhe; 10 Lys(2Peg11′_Palm); C-term NH2
Molecule B10 showed an FPN EC50 of 25.4 nM.

The molecule Isovaleryl-DTH[Dip]PCI[dK][β3hF]K([PEG12-Palmitoyl])P[dK]S[dK][Sarc]C[dK]-NH2 (disulfide 6-16 (inferred)) [Compd. ID 35] displayed an FPN EC50 of 23.1 nM.

B11: Compd. ID 36 (peptide)
peptide: DTHXPCIKXKKC
modifications: N-term isovaleric acid; 4 Dpa; 8 (D)Lys; 9 bhPhe; 10 Lys(2Peg11′_Sarc_Palm); 11 (D)Lys; C-term NH2
As to B11, the FPN EC50 was found to be 10.9 nM.

For the molecule Isovaleryl-DTH[Dip][Npc]CI[dK]FK([PEG12-Palmitoyl])[dK]C-NH2 (disulfide 6-12 (inferred)) [Seq. No. 352], the IC50: FPN internalisation is 6.48 nM.

The molecule Isovaleryl-DTH[Dip]PCI[dK][β3hF]K([PEG12-Palmitoyl])PRSK[Sarc]C-NH2 (disulfide 6-16 (inferred)) [Compd. ID 34] had an FPN EC50 of 23.6 nM.

Regarding Isovaleryl-DTH[Dip][Npc]CI[dK][Phe(4-tBu)]K([PEG12-Palmitoyl])KC-NH2 (disulfide 6-12 (inferred)) [Seq. No. 359], the IC50: FPN internalisation stood at 8.57 nM.

B12: Compd. ID 25 (peptide)
peptide: DTHXPCIKXKPC
modifications: N-term isovaleric acid; 4 Dpa; 8 (D)Lys; 9 bhPhe; 10 Lys(Ahx-Palm); 11 Pro(4-Amino); C-term NH2
As to B12, the FPN EC50 worked out at 25.7 nM.

Isovaleryl-DTH[Dip][Npc]CI[dK][2Nal]K([PEG12-Palmitoyl])KC-NH2 (disulfide 6-12 (inferred)) [Seq. No. 357] gave an IC50: FPN internalisation of 10.2 nM.

As to Isovaleryl-DTH[Dip][Npc]CI[dK][β3hF]K([γGlu-Palmitoyl])C[dK]-NH2 (disulfide 6-11 (inferred)) [Compd. ID 13], the FPN EC50 was found to be 16.1 nM.

Consider Isovaleryl-DTH[Dip]PCI[Arg(Nitro)][β3hF]K([Ahx-Palmitoyl])[dK]C-NH2 (disulfide 6-12 (inferred)) [Compd. ID 28], for which the FPN EC50 amounted to 27.1 nM.

Isovaleryl-DTHFPCI[dK]FK([PEG12-Palmitoyl])K[αMeC]-NH2 (disulfide 6-12 (inferred)) [Seq. No. 355] returned an IC50: FPN internalisation of 7.55 nM.

With Isovaleryl-DTH[Dip]PCI[Cit][β3hF]K([Ahx-Palmitoyl])[dK]C-NH2 (disulfide 6-12 (inferred)) [Compd. ID 30], the FPN EC50 is 26.6 nM.

B13: RI-Mini Hepcidin (peptide)
peptide: FICIPFHTD
modifications: all residues D-amino acids (DPhe-DIle-DCys-DIle-DPro-DPhe-DHis-DThr-DAsp); Hy- at the N-terminus; C-term NH2
With B13, the Potency EC50 (nM) is > 10000 nM.

B14: Compd. ID 26 (peptide)
peptide: DTHXPCIKXKXC
modifications: N-term isovaleric acid; 4 Dpa; 8 (D)Lys; 9 bhPhe; 10 Lys(Ahx-Palm); 11 Cav; C-term NH2
In turn, B14 displayed an FPN EC50 of 32.2 nM.

On to DTHXPCIKXKKC (N-term isovaleric acid; 4 Dpa; 8 (D)Lys; 9 bhPhe; 10 Lys[Palm]; C-term NH2) [Compd. ID 16], for which the FPN EC50 was determined as 5.85 nM.

B15: Seq. No. 349 (peptide)
peptide: DTHXPCIKXKKC
modifications: N-term isovaleric acid; 4 Dpa; 8 (D)Lys; 9 bhPhe; 10 Lys(PEG12_Palm); 11 (D)Lys; C-term NH2
Consider B15, for which the IC50: FPN internalisation is 11.2 nM.

B16: Compd. ID 23 (peptide)
peptide: DTHXPCIKXKRC
modifications: N-term isovaleric acid; 4 Dpa; 8 (D)Lys; 9 bhPhe; 10 Lys(Ahx-Palm); 11 Arg(Dimethyl); C-term NH2
The molecule B16 gave an FPN EC50 of 41.6 nM.

With Isovaleryl-DTH[Dip]PCI[Pro(4Amino)][β3hF]K([Ahx-Palmitoyl])[dK]C-NH2 (disulfide 6-12 (inferred)) [Compd. ID 31], the FPN EC50 stood at 18 nM.

As for Isovaleryl-DTH[Dip][Npc]CI[dK][β3hF]KC[dK]-NH2 (disulfide 6-11 (inferred); not fully specified (residue 10)) [Compd. ID 15], the FPN EC50 is > 3000 nM.
